For this assay, the target named is wild-type full-length recombinant human prion protein (human) (UniProt P04156). Put plainly: AFM height measurement with a calibration curve of marker proteins.

Consider “wild-type full-length recombinant human prion protein (from UniProt P04156 23-231) (natural protein)”, for which the stoichiometry N was in the range of 11 to 22 monomers.

A word on the stoichiometry N: it is the number of molecules, sites or subunits per partner or assembly.

Source of the values: paper PMC4505822.
